Here are results for one protein from PMC5472591, “Mechanical stability of talin rod controls cell migration and substrate sensing” (Scientific Reports, 2017).

The series deals with the molecule itself. Kind of series: SEC-MALS; SEC on Superdex 200 10/300 GL with inline right angle / static light scattering detector; 200 ug protein injected; 50 mM NaH3PO4, 150 mM NaCl pH 7.2; 0.5 ml/min; 20 °C; detector calibrated with the monomeric peak of BSA.

B1: talin-1 rod R3 subdomain fragment (amino acids 795-911) 4S mutant, His6-tagged (domain or fragment, mouse)
chain: SSSGPSASGTGAGRYDQATDTSLTVTENSFSSMGDAGEMVRQARILAQATSDLVNAIKADAEGESDLENSRKLLSAAKILADATAKMVEAAKGAAAHPDSEEQQQRSREAAEGSRMATNAAAQNAIKK
notes: 11 residue linker between the N-terminal His6-tag and the talin fragment; talin-1, mouse, R3 subdomain, residues 795-911, with all four destabilizing point mutations; not shown: His6, N-terminal, kept
For B1, the “stoichiometry N” value is 2.
